Substitutions are numbered along the chain they refer to.
How the values were obtained:
[Asp2]hGLP-2(1-33) = molecular target: T1, [Asp2]hGLP-2(1-33)
T1 chain: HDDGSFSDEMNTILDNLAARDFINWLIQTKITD

[Pen2]hGLP-2(1-33) = molecular target: T2, [Pen2]hGLP-2(1-33)
T2 chain: T1 chain with D2X

[1] = molecular target: T3, [Gly2, Arg34]hGLP-2(1-34)
T3 chain: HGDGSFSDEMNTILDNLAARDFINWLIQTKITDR

[Glu2]hGLP-2(1-33) = molecular target: T4, [Glu2]hGLP-2(1-33)
T4 chain: T1 chain with D2E

[bAla2]hGLP-2(1-33) = molecular target: T5, [bAla2]hGLP-2(1-33)
T5 chain: T1 chain with D2X

[Pro2]hGLP-2(1-33) = molecular target: T6, [Pro2]hGLP-2(1-33)
T6 chain: T1 chain with D2P

[Gly2]hGLP-2(1-33) = molecular target: T7, [Gly2]hGLP-2(1-33)
T7 chain: T1 chain with D2G

[Gly2,Ala4]hGLP-2(1-33) = molecular target: T8, [Gly2,Ala4]hGLP-2(1-33)
T8 chain: T1 chain with D2G, G4A

[Arg-l]ratGLP-2(-1-33) = molecular target: T9, [Arg-l]ratGLP-2(-1-33)
T9 chain: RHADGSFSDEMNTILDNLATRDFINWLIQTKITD

[Aib2]hGLP-2(1-33) = molecular target: T10, [Aib2]hGLP-2(1-33)
T10 chain: T1 chain with D2X

[Gly2,Ala5]hGLP-2(1-33) = molecular target: T11, [Gly2,Ala5]hGLP-2(1-33)
T11 chain: T1 chain with D2G, S5A

[Gly2]ratGLP-2(1-33) = molecular target: T12, [Gly2]ratGLP-2(1-33)
T12 chain: T1 chain with D2G, A19T

[Tyr25]hGLP-2(1-33) = molecular target: T13, [Tyr25]hGLP-2(1-33)
T13 chain: T1 chain with D2A, W25Y

[aAbu2]hGLP-2(1-33) = molecular target: T14, [aAbu2]hGLP-2(1-33)
T14 chain: T1 chain with D2X

[Val2]hGLP-2(1-33) = molecular target: T15, [Val2]hGLP-2(1-33)
T15 chain: T1 chain with D2V

[Met2]hGLP-2(1-33) = molecular target: T16, [Met2]hGLP-2(1-33)
T16 chain: T1 chain with D2M

[Pro1]hGLP-2(1-33) = molecular target: T17, [Pro1]hGLP-2(1-33)
T17 chain: T1 chain with H1P, D2A

[DAla2]ratGLP-2(1-33) = molecular target: T18, [DAla2]ratGLP-2(1-33)
T18 chain: T1 chain with D2A, A19T

[Lys2]hGLP-2(1-33) = molecular target: T19, [Lys2]hGLP-2(1-33)
T19 chain: T1 chain with D2K

[Tyr1]ratGLP-2(1-33) = molecular target: T20, [Tyr1]ratGLP-2(1-33)
T20 chain: T1 chain with H1Y, D2A, A19T

[desNH2Tyr1]hGLP-2(1-33) = molecular target: T21, [desNH2Tyr1]hGLP-2(1-33)
T21 chain: T1 chain with H1Y, D2A

Ac-ratGLP-2(1-33) = molecular target: T22, Ac-ratGLP-2(1-33)
T22 chain: T1 chain with D2A, A19T

[D-Ala2]hGLP-2(1-33) = molecular target: T23, [D-Ala2]hGLP-2(1-33)
T23 chain: T1 chain with D2A

[tBuGly2]hGLP-2 = molecular target: T24, [tBuGly2]hGLP-2
T24 chain: T1 chain with D2X

[His2]hGLP-2(1-33) = molecular target: T25, [His2]hGLP-2(1-33)
T25 chain: T1 chain with D2H

[Ser2]hGLP-2(1-33) = molecular target: T26, [Ser2]hGLP-2(1-33)
T26 chain: T1 chain with D2S

[Ala4]ratGLP-2(1-33) = molecular target: T27, [Ala4]ratGLP-2(1-33)
T27 chain: T1 chain with D2A, G4A, A19T

hGLP-2(1-33) = molecular target: T28, hGLP-2(1-33)
T28 chain: T1 chain with D2A

[Tyr2]hGLP-2(1-33) = molecular target: T29, [Tyr2]hGLP-2(1-33)
T29 chain: T1 chain with D2Y

[Ile2]hGLP-2(1-33) = molecular target: T30, [Ile2]hGLP-2(1-33)
T30 chain: T1 chain with D2I

[Tyr1, Gly2]hGLP-2(1-33) = molecular target: T31, [Tyr1, Gly2]hGLP-2(1-33)
T31 chain: T1 chain with H1Y, D2G

[Gly2,Ala3]hGLP-2(1-33) = molecular target: T32, [Gly2,Ala3]hGLP-2(1-33)
T32 chain: T1 chain with D2G, D3A

[2] = molecular target: T33, [Gly2, Tyr34]hGLP-2(1-34)
T33 chain: T3 chain with R34Y

[3] = molecular target: T34, [Arg-2,Arg-1]ratGLP-2(2-33)
T34 chain: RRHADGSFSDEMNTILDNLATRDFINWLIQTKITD

[Val2]GLP-2(1-33) = molecular target: T35, [Val2]GLP-2(1-33)
T35 chain: T1 chain with D2V, A19T

[Gly2,Ala24]hGLP-2(1-33) = molecular target: T36, [Gly2,Ala24]hGLP-2(1-33)
T36 chain: T1 chain with D2G, N24A

[Ala1,Gly2]hGLP-2(1-33) = molecular target: T37, [Ala1,Gly2]hGLP-2(1-33)
T37 chain: T1 chain with H1A, D2G

[Pro3]hGLP-2(1-33) = molecular target: T38, [Pro3]hGLP-2(1-33)
T38 chain: T1 chain with D2A, D3P

[Phe25]hGLP-2(1-33) = molecular target: T39, [Phe25]hGLP-2(1-33)
T39 chain: T1 chain with D2A, W25F

[Nval2]hGLP-2(1-33) = molecular target: T40, [Nval2]hGLP-2(1-33)
T40 chain: T1 chain with D2X

[Phe2]hGLP-2(1-33) = molecular target: T41, [Phe2]hGLP-2(1-33)
T41 chain: T1 chain with D2F

ratGLP-2(1-33) = molecular target: T42, ratGLP-2(1-33)
T42 chain: T1 chain with D2A, A19T

[Thr2]hGLP-2(1-33) = molecular target: T43, [Thr2]hGLP-2(1-33)
T43 chain: T1 chain with D2T

[Glu3]ratGLP-2(1-33) = molecular target: T44, [Glu3]ratGLP-2(1-33)
T44 chain: T1 chain with D2A, D3E, A19T

[Gln2]hGLP-2(1-33) = molecular target: T45, [Gln2]hGLP-2(1-33)
T45 chain: T1 chain with D2Q

[Ser2,Gln3]hGLP-2(1-33) = molecular target: T46, [Ser2,Gln3]hGLP-2(1-33)
T46 chain: T1 chain with D2S, D3Q

[Asn2]hGLP-2(1-33) = molecular target: T47, [Asn2]hGLP-2(1-33)
T47 chain: T1 chain with D2N

[Arg30]hGLP-2(1-33) = molecular target: T48, [Arg30]hGLP-2(1-33)
T48 chain: T1 chain with D2A, K30R

[PhGly2]hGLP-2(1-33) = molecular target: T49, [PhGly2]hGLP-2(1-33)
T49 chain: T1 chain with D2X

[Glu33]hGLP-2(1-33) = molecular target: T50, [Glu33]hGLP-2(1-33)
T50 chain: T1 chain with D2A, D33E

[Asp1]hGLP-2(1-33) = molecular target: T51, [Asp1]hGLP-2(1-33)
T51 chain: T1 chain with H1D, D2A

[Ala5, Ala7]hGLP-2(1-33) = molecular target: T52, [Ala5, Ala7]hGLP-2(1-33)
T52 chain: T1 chain with D2A, S5A, S7A

B1: human placental DPP-IV (Calbiochem, La Jolla, Calif., cat. #317624) (protein)
chain: MKTPWKVLLGLLGAAALVTIITVPVVLLNKGTDDATADSRKTYTLTDYLKNTYRLKLYSLRWISDHEYLYKQENNILVFNAEYGNSSVFLENSTFDEFGHSINDYSISPDGQFILLEYNYVKQWRHSYTASYDIYDLNKRQLITEERIPNNTQWVTWSPVGHKLAYVWNNDIYVKIEPNLPSYRITWTGKEDIIYNGITDWVYEEEVFSAYSALWWSPNGTFLAYAQFNDTEVPLIEYSFYSDESLQYPKTVRVPYPKAGAVNPTVKFFVVNTDSLSSVTNATSIQITAPASMLIGDHYLCDVTWATQERISLQWLRRIQNYSVMDICDYDESSGRWNCLVARQHIEMSTTGWVGRFRPSEPHFTLDGNSFYKIISNEEGYRHICYFQIDKKDCTFITKGTWEVIGIEALTSDYLYYISNEYKGMPGGRNLYKIQLSDYTKVTCLSCELNPERCQYYSVSFSKEAKYYQLRCSGPGLPLYTLHSSVNDKGLRVLEDNSALDKMLQNVQMPSKKLDFIILNETKFWYQMILPPHFDKSKKYPLLLDVYAGPCSQKADTVFRLNWATYLASTENIIVASFDGRGSGYQGDKIMHAINRRLGTFEVEDQIEAARQFSKMGFVDNKRIAIWGWSYGGYVTSMVLGSGSGVFKCGIAVAPVSRWEYYDSVYTERYMGLPTPEDNLDHYRNSTVMSRAENFKQVEYLLIHGTADDNVHFQQSAQISKALVDVGVDFQAMWYTDEDHGIASSTAHQHIYTHMSHFIKQCFSLP
% Cleaved by DPP-IV ([Asp2]hGLP-2(1-33)): 0% | % Cleaved by DPP-IV ([Pen2]hGLP-2(1-33)): 20% | % Cleaved by DPP-IV [1]: 0% | % Cleaved by DPP-IV ([Glu2]hGLP-2(1-33)): 0% | % Cleaved by DPP-IV ([bAla2]hGLP-2(1-33)): 0% | % Cleaved by DPP-IV ([Pro2]hGLP-2(1-33)): 16% | % Cleaved by DPP-IV ([Gly2]hGLP-2(1-33)): 0% | % Cleaved by DPP-IV ([Gly2,Ala4]hGLP-2(1-33)): 0% | % Cleaved by DPP-IV ([Arg-l]ratGLP-2(-1-33)): 0% | % Cleaved by DPP-IV ([Aib2]hGLP-2(1-33)): 0% | % Cleaved by DPP-IV ([Gly2,Ala5]hGLP-2(1-33)): 0% | % Cleaved by DPP-IV ([Gly2]ratGLP-2(1-33)): 0% | extent of cleavage after 24 hour incubation (RP-HPLC) ([Gly2]ratGLP-2(1-33)): No cleavage products were detected | % Cleaved by DPP-IV ([Tyr25]hGLP-2(1-33)): 48% | % Cleaved by DPP-IV ([aAbu2]hGLP-2(1-33)): 49% | % Cleaved by DPP-IV ([Val2]hGLP-2(1-33)): 13% | % Cleaved by DPP-IV ([Met2]hGLP-2(1-33)): 0% | % Cleaved by DPP-IV ([Pro1]hGLP-2(1-33)): 0% | % Cleaved by DPP-IV ([DAla2]ratGLP-2(1-33)): 0% | extent of cleavage after 24 hour incubation (RP-HPLC) ([DAla2]ratGLP-2(1-33)): No cleavage products were detected | % Cleaved by DPP-IV ([Lys2]hGLP-2(1-33)): 0% | % Cleaved by DPP-IV ([Tyr1]ratGLP-2(1-33)): 100% | % Cleaved by DPP-IV ([desNH2Tyr1]hGLP-2(1-33)): 15% | % Cleaved by DPP-IV (Ac-ratGLP-2(1-33)): 0% | % Cleaved by DPP-IV ([D-Ala2]hGLP-2(1-33)): 0% | % Cleaved by DPP-IV ([tBuGly2]hGLP-2): 0% | % Cleaved by DPP-IV ([His2]hGLP-2(1-33)): 0% | % Cleaved by DPP-IV ([Ser2]hGLP-2(1-33)): 0% | % Cleaved by DPP-IV ([Ala4]ratGLP-2(1-33)): 72% | % Cleaved by DPP-IV (hGLP-2(1-33)): 60% | % Cleaved by DPP-IV ([Tyr2]hGLP-2(1-33)): 0% | % Cleaved by DPP-IV ([Ile2]hGLP-2(1-33)): 0% | % Cleaved by DPP-IV ([Tyr1, Gly2]hGLP-2(1-33)): 0% | % Cleaved by DPP-IV ([Gly2,Ala3]hGLP-2(1-33)): 0% | % Cleaved by DPP-IV [2]: 0% | % Cleaved by DPP-IV [3]: 0% | % Cleaved by DPP-IV ([Val2]GLP-2(1-33)): 0% | % Cleaved by DPP-IV ([Gly2,Ala24]hGLP-2(1-33)): 0% | % Cleaved by DPP-IV ([Ala1,Gly2]hGLP-2(1-33)): 0% | % Cleaved by DPP-IV ([Pro3]hGLP-2(1-33)): 0% | % Cleaved by DPP-IV ([Phe25]hGLP-2(1-33)): 54% | % Cleaved by DPP-IV ([Nval2]hGLP-2(1-33)): 0% | % Cleaved by DPP-IV ([Phe2]hGLP-2(1-33)): 0% | % Cleaved by DPP-IV (ratGLP-2(1-33)): 58% | extent of cleavage after 24 hour incubation (RP-HPLC) (ratGLP-2(1-33)): 22% of the control peptide, rGLP-2, was cleaved by DPP-IV | % Cleaved by DPP-IV ([Thr2]hGLP-2(1-33)): 0% | % Cleaved by DPP-IV ([Glu3]ratGLP-2(1-33)): 50% | % Cleaved by DPP-IV ([Gln2]hGLP-2(1-33)): 0% | % Cleaved by DPP-IV ([Ser2,Gln3]hGLP-2(1-33)): 0% | % Cleaved by DPP-IV ([Asn2]hGLP-2(1-33)): 0% | % Cleaved by DPP-IV ([Arg30]hGLP-2(1-33)): 59% | % Cleaved by DPP-IV ([PhGly2]hGLP-2(1-33)): 0% | % Cleaved by DPP-IV ([Glu33]hGLP-2(1-33)): 55% | % Cleaved by DPP-IV ([Asp1]hGLP-2(1-33)): 0% | % Cleaved by DPP-IV ([Ala5, Ala7]hGLP-2(1-33)): 77%

From patent publication US8933039
